Laboratory results as given in patent US20210253666A1 (TCR2 THERAPEUTICS, published 2021).
Numbering of substitutions follows the chain as printed.

T1: hMUC16 peptide biotinylated either at C- or N-terminus (bio-hMUC16) (human, biotin at C- or N-terminus)
T1 construct: Captured on streptavidin-coated plates for panning and ELISA screening; also called human MUC16 peptide; MUC16 immunization peptide
T1 peptide: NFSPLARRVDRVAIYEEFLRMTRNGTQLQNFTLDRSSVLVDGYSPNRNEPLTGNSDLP

B1: Single domain anti-MUC16 R3MU63 (VHH)
VHH: QVQLQESGGGLVQAGDSLRLSCAASGRTVSSLFMGWFRRAPGKERELVAAISRYSLYTYYADSVKGRFTISADNAKNAVYLQMNSLKPEDTAVYYCASKLEYTSNDYDSWGQGTQVTVSS
notes: Tested as soluble nanobody in crude periplasmic extract; not shown: C-terminal HA tag and His6 tag of the pMECS GG vector
B2: Single domain anti-MUC16 R3MU29 (VHH)
VHH: B1 VHH with T28A
notes: as for B1
B3: Single domain anti-MUC16 R3MU147 (VHH)
VHH: B1 VHH with D16E
notes: as for B1
B4: Single domain anti-MUC16 R3MU150 (VHH)
VHH: B1 VHH with A14P, D16G
notes: as for B1
B5: single domain anti-MUC16 binder R3MU4 (VHH)
VHH: B1 VHH with D16G, R39Q
notes: as for B1
B6: Single domain anti-MUC16 R3MU119 (VHH)
VHH: QVQLQESGGGLVQPGDSMRLSCAAEGDSLDGYVVGWFRQAPGKERQGVSSISGDGSMRYVADSVKGRFTISRDNAKNTVYLQMIDLKPEDTGVYYCAADPPTWDYWGQGTQVTVSS
notes: as for B1

Target: T1, hMUC16 peptide biotinylated either at …
Assay: ELISA, crude periplasmic extracts on biotinylated hMUC16 peptide captured on streptavidin-coated wells
Experimental: The Core 93GG library was panned on hMUC16 peptide […] (SEQ ID NO:92) biotinylated either at C- or N-terminus (bio-hMUC16) for 4 rounds. The bio-hMUC16 peptide was allowed to interact with streptavidin coated plates after which phages from the library were added to the plate. The enrichment for antigen-specific phages was assessed after each round of panning by comparing the number of phagemid particles eluted from antigen-coated wells with the number of phagemid particles eluted from negative control wells (coated with streptavidin and blocked but containing no peptide). […] No enrichment was observed after the 1st, 3rd and 4th round. In total, 380 colonies (190 from round 3, 190 from round 4) were randomly selected and analyzed by ELISA for the presence of antigen-specific nanobodies in their periplasmic extracts (ELISA using crude periplasmic extracts including soluble nanobodies). The peptides used for ELISA screening were the same as the ones used for panning, using blocked streptavidin-coated wells without peptide as negative control. Out of these 380 colonies, 34 colonies scored positive in this assay. Based on sequence data of the positive colonies, 6 different full length nanobodies were distinguished, belonging to 2 different CDR3 groups (B-cell lineages) (see Excel file). […] Nanobodies belonging to the same CDR3 group recognize the same epitope but their other characteristics (e.g. affinity, potency, stability, expression yield, etc.) can be different. Clones from these pannings bear the following code in their name: MU.

Row | Binder | binding result
1 | B1 | binds
2 | B2 | binds
3 | B3 | binds
4 | B4 | binds
5 | B5 | binds
6 | B6 | binds
